# Test results: publication PMC10200313 (ACS chemical biology, 2022)
# B1: Nb6E labeled with biotin (Nb6E-biotin) (VHH)
# VHH: QVQLQESGGGLVQPGGSLRLSCAASGFVFENSAMAWYRQAPGKERELIAVIGTTFIKLAESVKGRFTISRDNAKSTVYLQMNNLKPEDTAVYYCSKSGAYWGQGTQVTVSS
# Biological target: T1, 6E peptide (14-mer peptide derived from UBC6e, with N-terminal triglycine motif) (Homo sapiens, UniProt Q9Y385)
# T1 chain: QADQEAKELARQIS
# Assay: SPR
binder,measurement,value
B1,binding result,binds
